Experimental findings from PMC314469, “Protein Interaction Networks by Proteome Peptide Scanning” (PLoS Biology, 2004) are described below.

What all share (experiment): SPOT array
The target in test [1] is T1, Yhr016c SH3 (YSC84_YEAST), P32793.
T1 chain: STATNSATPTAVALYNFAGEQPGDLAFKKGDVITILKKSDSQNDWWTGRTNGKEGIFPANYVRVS

Test [2] addresses T2, Yfr024 SH3 (LSB3_YEAST), P43603.
T2 chain: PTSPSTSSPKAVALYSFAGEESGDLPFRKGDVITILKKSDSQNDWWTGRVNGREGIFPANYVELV

In test [3] the target is T3, Boi1 SH3 (BOI1_YEAST), P38041.
T3 chain: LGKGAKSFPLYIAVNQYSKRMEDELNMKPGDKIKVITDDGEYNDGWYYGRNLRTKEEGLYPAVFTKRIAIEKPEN

The target in test [4] is T4, Myo5 SH3 (MYO5_YEAST), Q04439.
T4 chain: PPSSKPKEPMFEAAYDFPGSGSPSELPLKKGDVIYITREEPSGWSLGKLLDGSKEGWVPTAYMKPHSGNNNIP

The target of test [5] is T5, Boi2 SH3 (BOI2_YEAST), P39969.
T5 chain: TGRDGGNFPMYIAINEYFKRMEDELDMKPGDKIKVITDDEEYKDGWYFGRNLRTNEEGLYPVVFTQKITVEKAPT

The target in test [6] is Sho1 SH3 (SHO1_YEAST), P40073.
Chain of Sho1 SH3 (SHO1_YEAST), P40073 (P40073 295-366): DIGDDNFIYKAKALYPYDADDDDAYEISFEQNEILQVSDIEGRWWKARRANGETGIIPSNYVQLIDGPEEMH
Test [7] deals with T6, Rvs167 SH3 (RV167_YEAST), P39743.
T6 chain: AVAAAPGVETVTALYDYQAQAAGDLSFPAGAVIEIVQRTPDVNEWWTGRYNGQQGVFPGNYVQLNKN

Consider WENFKEEPGEPLSR [YMR227C 326-339], for which the normalised SPOT signal, Boehringer light units (BLU); mean over the file's lines of this peptide came to 140 in test [1]; 2790 in test [2]; 104 in test [3]; 96.8 in test [4]; 81.2 in test [5]; 38.9 in test [6]. Also, in test [7], the normalised SPOT signal, Boehringer light units (BLU); mean over the file's lines of this peptide was determined as 82.
Consider WLDEKRIPSTPVDY [YGR124W 196-209], for which the normalised SPOT signal, Boehringer light units (BLU); mean over the file's lines of this peptide in test [1] turned out to be 278; in test [2] it was 3060; in test [3], 107; in test [4], 240; in test [5], 184; in test [6] it was 191. The normalised SPOT signal, Boehringer light units (BLU); mean over the file's lines of this peptide in test [7] turned out to be 177.
As to WFILKLFPHEPIEG [YMR034C 292-305], the normalised SPOT signal, Boehringer light units (BLU); mean over the file's lines of this peptide in test [1] was determined as 131; in test [2], 1350; in test [3], 12.8; in test [4], 1270; in test [5], 30.6; in test [6], 31.7. Besides, the normalised SPOT signal, Boehringer light units (BLU); mean over the file's lines of this peptide in test [7] amounted to 43.8.
Regarding VYRRKSIPFAPHQI [YFR032C 169-182], the normalised SPOT signal, Boehringer light units (BLU); mean over the file's lines of this peptide in test [1] came out at 70.7; in test [2], 183; in test [3], 2560; in test [4], 383; in test [5], 47; in test [6] it was 135. Also, the normalised SPOT signal, Boehringer light units (BLU); mean over the file's lines of this peptide in test [7] came out at 138.
As for YAVDKIMPPTPAKK [YAL024C 308-321], the normalised SPOT signal, Boehringer light units (BLU); mean over the file's lines of this peptide turned out to be 22 in test [1]; 512 in test [2]; 44.9 in test [3]; 110 in test [4]; 2 in test [5]; 112 in test [6]. Besides, the normalised SPOT signal, Boehringer light units (BLU); mean over the file's lines of this peptide in test [7] amounted to 71.5.
Regarding WFDLKGLPRQPEPL [YFL041W 550-563], the normalised SPOT signal, Boehringer light units (BLU); mean over the file's lines of this peptide in test [1] came out at 201; in test [2], 4860; in test [3] it was 78.2; in test [4], 102; in test [5] it was 409; in test [6], 19600. In test [7], this molecule registered a normalised SPOT signal, Boehringer light units (BLU); mean over the file's lines of this peptide of 278.
Regarding WLGNKYDPENPFND [YBL088C 600-613], the normalised SPOT signal, Boehringer light units (BLU); mean over the file's lines of this peptide in test [1] was 125; in test [2], 862; in test [3] it was 66.1; in test [4] it was 88.8; in test [5], 70.7; in test [6], 62.8. This molecule also yielded a normalised SPOT signal, Boehringer light units (BLU); mean over the file's lines of this peptide in test [7] of 149.
With WSQMRMNPTNPDWI [YPR074C 45-58], the normalised SPOT signal, Boehringer light units (BLU); mean over the file's lines of this peptide in test [1] was 1270; in test [2], 3220; in test [3] it was 115; in test [4], 81.2; in test [5], 1320; in test [6] it was 132. This molecule gave a normalised SPOT signal, Boehringer light units (BLU); mean over the file's lines of this peptide in test [7] of 892.
Regarding WLDEKRIPSTPIDY [YPR145W 196-209], the normalised SPOT signal, Boehringer light units (BLU); mean over the file's lines of this peptide was 179 in test [1]; 1670 in test [2]; 11.5 in test [3]; 163 in test [4]; 962 in test [5]; 81.5 in test [6]. This molecule also yielded a normalised SPOT signal, Boehringer light units (BLU); mean over the file's lines of this peptide in test [7] of 897.
With VVNEKEVPAEPETQ [YER120W 161-174], the normalised SPOT signal, Boehringer light units (BLU); mean over the file's lines of this peptide in test [1] came to 12.7; in test [2], 33; in test [3], 130; in test [4] it was 100; in test [5], 34.2; in test [6] it was 28.5. The normalised SPOT signal, Boehringer light units (BLU); mean over the file's lines of this peptide in test [7] amounted to 12.9.
Take VVPERVKPAPPVSR [YPR171W 231-244]: the normalised SPOT signal, Boehringer light units (BLU); mean over the file's lines of this peptide is 88 in test [1]; 479 in test [2]; 2710 in test [3]; 150 in test [4]; 51.5 in test [5]; 43 in test [6]. The same molecule showed a normalised SPOT signal, Boehringer light units (BLU); mean over the file's lines of this peptide in test [7] of 53.2.
Take WRWARDTPRAPGLH [YCR020C 147-160]: the normalised SPOT signal, Boehringer light units (BLU); mean over the file's lines of this peptide turned out to be 1970 in test [1]; 7740 in test [2]; 46.7 in test [3]; 2100 in test [4]; 3730 in test [5]; 2030 in test [6]. Also, the normalised SPOT signal, Boehringer light units (BLU); mean over the file's lines of this peptide in test [7] turned out to be 1330.
Consider WEALKSVPIPPRKN [YJR113C 98-111], for which the normalised SPOT signal, Boehringer light units (BLU); mean over the file's lines of this peptide in test [1] came to 1880; in test [2], 9510; in test [3], 52300; in test [4], 379; in test [5], 1740; in test [6], 3290. Also, in test [7], the normalised SPOT signal, Boehringer light units (BLU); mean over the file's lines of this peptide was 2780.
In the case of VWGPKPVPFQPMDV [YAL060W 292-305], the normalised SPOT signal, Boehringer light units (BLU); mean over the file's lines of this peptide stood at 257 in test [1]; 1000 in test [2]; 479 in test [3]; 96.9 in test [4]; 247 in test [5]; 24.2 in test [6]. In test [7], the normalised SPOT signal, Boehringer light units (BLU); mean over the file's lines of this peptide was determined as 112.
